Data as given in patent publication US6780974B2, “Synthetic DNA encoding an orange seapen-derived green fluorescent protein with codon preference of mammalian expression systems and biosensors” (Cellomics, Inc., priority 2001, dated 2004).

B1: hPtFP: full length humanized Ptilosarcus gurneyi green fluorescent protein, 239 amino acid residues, valine added at position 2 (protein)
chain: MVNRNVLKNTGLKEIMSAKASVEGIVNNHVFSMEGFGKGNVLFGNQLMQIRVTKGGPLPFAFDIVSIAFQYGNRTFTKYPDDIADYFVQSFPAGFFYERNLRFEDGAIVDIRSDISLEDDKFHYKVEYRGNGFPSNGPVMQKAILGMEPSFEVVYMNSGVLVGEVDLVYKLESGNYYSCHMKTFYRSKGGVKEFPEYHFIHHRLEKTYVEEGSFVEQHETAIAQLTTIGKPLGSLHEWV
B2: hPtFP DNA: synthetic DNA encoding hPtFP with codons favored for mammalian expression systems (nucleic acid)
DNA: AAGCTTGCCACCATGGTGAACCGGAACGTGCTGAAGAACACCGGCCTGAAGGAGATCATGAGCGCCAAGGCCAGCGTGGAGGGCATCGTGAACAACCACGTGTTCAGCATGGAGGGCTTCGGCAAGGGCAACGTGCTGTTCGGCAACCAGCTGATGCAGATCCGGGTGACCAAGGGCGGCCCTCTGCCCTTCGCCTTCGACATCGTGAGCATCGCCTTCCAGTACGGCAACCGGACCTTCACCAAGTATCCCGACGACATCGCCGACTACTTCGTGCAGAGCTTCCCTGCCGGCTTCTTCTACGAGCGGAACCTGCGGTTCGAGGACGGCGCCATCGTGGACATCCGGAGCGACATCAGCCTGGAGGACGACAAGTTCCACTACAAGGTGGAGTACCGCGGCAACGGCTTCCCTAGCAACGGCCCTGTGATGCAGAAGGCCATCCTGGGCATGGAGCCCAGCTTCGAGGTGGTGTACATGAACAGCGGCGTGCTGGTGGGCGAGGTGGACCTGGTGTACAAGCTGGAGAGCGGCAACTACTACAGCTGCCACATGAAGACCTTCTACCGGAGCAAGGGCGGCGTGAAGGAGTTCCCTGAGTACCTATTCATCCACCACCGGCTGGAGAAGAACTACGTGGAGGAGGGCAGCTTCGTGGAGCAGCACGAGACCGCCATCGCCCAGCTGACCACCATCGGCAAGCCTCTGGGCAGCCTGCACGAGTGGGTGTAAAGCGGCCGCAAGCTTGCCACCATGGTGAACCGGAACGTGCTGAAGAACACCGGCCTGAAGGAGATCATGAGCGCCAAGGCCAGCGTGGAGGGCATCGTGAACAACCACGTGTTCAGCATGGAGGGCTTCGGCAAGGGCAACGTGCTGTTCGGCAACCAGCTGATGCAGATCCGGGTGACCAAGGGCGGCCCTCTGCCCTTCGCCTTCGACATCGTGAGCATCGCCTTCCAGTACGGCAACCGGACCTTCACCAAGTATCCCGACGACATCGCCGACTACTTCGTGCAGAGCTTCCCTGCCGGCTTCTTCTACGAGCGGAACCTGCGGTTCGAGGACGGCGCCATCGTGGACATCCGGAGCGACATCAGCCTGGAGGACGACAAGTTCCACTACAAGGTGGAGTACCGCGGCAACGGCTTCCCTAGCAACGGCCCTGTGATGCAGAAGGCCATCCTGGGCATGGAGCCCAGCTTCGAGGTGGTGTACATGAACAGCGGCGTGCTGGTGGGCGAGGTGGACCTGGTGTACAAGCTGGAGAGCGGCAACTACTACAGCTGCCACATGAAGACCTTCTACCGGAGCAAGGGCGGCGTGAAGGAGTTCCCTGAGTACCTATTCATCCACCACCGGCTGGAGAAGAACTACGTGGAGGAGGGCAGCTTCGTGGAGCAGCACGAGACCGCCATCGCCCAGCTGACCACCATCGGCAAGCCTCTGGGCAGCCTGCACGAGTGGGTGTAAAGCGGCCGC

Experiments:
Format in all cases: cell-based
COS1 cells [1] = assay: In situ absorption and emission spectra of live COS1 cells expressing hPtFP; details: in COS-1 cells
Experimental: Forty-eight hours after initial transfection with the synthetic green fluorescent protein DNA of the present invention, COS1 cells were trypsinized and were kept in suspension. The absorption and emission spectra of the live cells expressing the hPtFP of the present invention were then measured, as shown in FIG. 2.

HEK293 cells = assay: Percentage of hPtFP-positive cells in stably transfected HEK293 mixed population during passage (growth / toxicity); details: for toxicity to host cells: stably transfected mammalian host cells (HEK293)
Experimental: The cells were co-transfected with the hPtFP construct and pSV2-neo (Cat #37149, ATCC, Manassas, Va., USA) with FUGENE 6 transfection reagent (Roche Molecular Biochemicals, Indianapolis, Ind., USA) following the manufacturer's instructions. Two days after transfection, cells were treated with 0.4 mg/ml (milligram/milliliter) G418 in normal growth medium. After treating with G418 for two weeks, drug resistant cells were isolated or pooled. A mixture of stably transfected HEK293 mixed population (in which about 30% of the cells expressing hPtFP of this invention) were plated out in 96 cell micro plates. After 2, 4, or 6 days incubation, the cells were fixed with 3.7% formaldehyde for 20 minutes at room temperature (25° Centigrade). The percentage of positive cells was quantitated with ARRAYSCAN II instrument, as described herein.
To compare the growth rates of cells expressing or not expressing hPtFP, a mixture of stably transfected HEK293 mixed population (in which about 30% of the cells expressing hPtFP of this invention) were plated out in 96-well micro plates. After 2, 4, or 6 days incubation, the cells were fixed with 3.7% (percent) formaldehyde for twenty minutes at room temperature (25 degrees Centigrade). The percentage of positive cells was quantitated with ARRAYSCAN II instrument, as described herein.

COS1 cells [2] = assay: Fluorescence of COS1 cells transiently transfected with humanized versus wild type PtFP DNA (ARRAYSCAN II); details: transient transfection
Excerpt: The difference at the nucleotide level (versus codon level) is that the hPtFP open reading frame (including the stop codon) contains 720 nucleotides, whereas the PtFP open reading frame (including the stop codon) contains 717 nucleotides. It will be appreciated by those skilled in the art, that without counting the extra valine introduced into hPtFP of the present invention, there are 166 nucleotide differences between the 717 nucleotides compared, or 23.15 percent difference (or 76.85% identity). If the stop codon is excluded in this comparison, there are 165 nucleotide differences in the 714 nucleotides compared, or 23.10 percent difference (or 76.9% identity). […]
To compare the expression of wild type Ptilosarcus gurneyi fluorescent protein DNA with humanized Ptilosarcus gurneyi green fluorescent protein synthetic DNA as described above, an expression vector for the wild type Ptilosarcus gurneyi DNA was constructed by cloning the wild type PtFP into the expression vector M2, and thus, these two expression vectors under comparison differed only in their coding regions. […] The purified DNA preps were quantitated by reading the optic absorption at 260 nm (nanometers) with a HP8453 UV—visible spectrophotometer (Agilent Technologies, Palo Alto, Calif., USA) and calculated based on 1 O.D.=[…] DNA. […]

Molecule	absorption and emission spectra compared with wildtype Ptilosarcus gurneyi (COS1 cells [1])	percentage of positive cells during cell passage (HEK293 cells; HEK293 mixed population, about 30% expressing hPtFP, 2, 4 or 6 days incubation, no selection (FIG. 5))	toxicity to host cells (HEK293 cells)	number and brightness of expressing cells compared with wild type PtFP DNA (visual observation) (COS1 cells [2])	fluorescent signal compared with wild type Ptilosarcus gurneyi green fluorescent protein (COS1 cells [2]; identical amount of DNA, forty hours post-transfection, intensity in nuclear area (FIG. 3))
B1	unchanged	did not change	not toxic to the cells		
B2			does not have toxic effects on the host cells	more hPtFP expressing cells and brighter cells than the wild type	stronger fluorescent signals than the wild type
